Test results from patent publication US20220289830A1.

Molecular target: native PcrV on live Pseudomonas aeruginosa (strains O6-57/66, O11-PA103, O1-52/66, O16-177/81) (Pseudomonas aeruginosa)
Test: cell-based or functional assay

B1: 2D3 (antibody, V domains shown)
VH: EVQLLESGGGLVQPGGSLRLSCTASGFTFSDNHMSWVRQAPGKGLDWVSGISESGGSTYYADSVKGRFSTSRDNSKSTLYLDMNSLRAEDTAIYYCAKGRFSYDTRHFFRAVYGMDVWGQGTAVTVSS
VL: DIQLTQSPSSLSASVGDRVTITCRASQGISSYLAWYQQKPGKAPKLLIYAASTLQSGVPSRFSGSGSGTDFTLTISSLQPEDFATYYCQQLSSYPLSFGGGTKVEIK
With B1 the RBC lysis assay IC50 (P. aeruginosa strain 57/66(O6)) was 0.05 µg/mL.

B2: 7B1-1F5 (antibody, V domains shown)
VH: EVQLLESGGGLVQPGGSLRLSCTASGFTFSDNYMSWVRQAPGKGLDWVSVISESGGSTNYADSVKGRFSTSRDNSKSTLYLDMNSLRAEDTAIYYCAKGRFSTLSSHFFRAVYGMDVWGQGTAVTVSS
VL: DIQLTQSPSSFSASTGDRVTITCRASQGISSYLAWYQQKPGKAPKVLIYAASTLQSGVPSRFSGSGSGTEFTLTISSLQPEDFATYYCQQLKSYPLTFGGGTKLEIK
In the case of B2, the RBC lysis assay IC50 (P. aeruginosa strain 57/66(O6)) is reported as 0.19 µg/mL.

B3: 9B12 (antibody, V domains shown)
VH: EVQLLESGGGLVQPGGSLRLSCTASGFTFSDNPMSWVRQAPGKGLDWVSVISESGGSTNDADSVKGRFSTSRDNSKSTLYLDMNSLRAEDTAIYYCAKGRFSTNSDHFYRAVYGMDVWGQGTAVTVSS
VL: DIQLTQSPSSLSASVGDRVTITCRASQGISSYLAWYQQKPGKAPKLLIYAASTLQSGVPSRFSGSGSGTDFTLTISSLQPEDFATYYCQQLSSYPLTFGGGTKVEIK
With B3 the RBC lysis assay IC50 (P. aeruginosa strain 57/66(O6)) was 0.07 µg/mL.
